# How the values were obtained:
# active MMP-9_Cat-H6 = molecular target: T1, active MMP-9_Cat-H6 (human, UniProt P14780 107-449); assay: SEC; MMP-9 (25 μM) incubated with TIMP-1 or M91005 (75 μM; molar ratio 3:1) in PBS for 1 h at 4°C; ACQUITY UPLC BEH200 column in PBS; shift of the retention time; details: both partners purified
# T1 construct: human MMP-9 catalytic domain with the Fn-like domain, without the HPX domain; pro-form residues 20-449; not shown: His6, C-terminal, kept
# MMP-9_Cat_E402Q-H6 = molecular target: T2, MMP-9_Cat_E402Q-H6 (human, UniProt P14780 107-449, E402Q); assay: as above; details: both partners purified
# T2 construct: human MMP-9 catalytic domain with the Fn-like domain, without the HPX domain; pro-form residues 20-449; also called pro-peptide-removed E402Q mutant; active-site mutant; source: HEK293F, transiently expressed, purified (HisTrap excel), pro-peptide removed with MMP-3; not shown: His6, C-terminal, kept
# T2 sequence (P14780 107-449 E402Q): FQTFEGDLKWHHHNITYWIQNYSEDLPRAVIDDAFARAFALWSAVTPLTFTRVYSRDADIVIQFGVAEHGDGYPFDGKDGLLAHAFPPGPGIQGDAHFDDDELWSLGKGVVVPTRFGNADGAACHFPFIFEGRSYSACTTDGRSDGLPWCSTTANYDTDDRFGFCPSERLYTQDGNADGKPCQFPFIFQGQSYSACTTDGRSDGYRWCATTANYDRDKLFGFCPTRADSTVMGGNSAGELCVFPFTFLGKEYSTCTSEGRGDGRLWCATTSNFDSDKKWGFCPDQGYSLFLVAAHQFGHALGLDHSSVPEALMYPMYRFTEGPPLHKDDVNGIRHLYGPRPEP
# T1 sequence (P14780 107-449): as the sequence (P14780 107-449 E402Q) above, with Q296E counted along it
binder,measurement,setting,value
"Human TIMP-1 (natural protein, signal peptide in the construct; human TIMP-1 residues 1-207) not shown",binding result,active MMP-9_Cat-H6,binds
same,binding result,MMP-9_Cat_E402Q-H6,binds
